T1: APBA1_2, Q02410
T1 sequence (Q02410 742-832, limits assumed, looked up): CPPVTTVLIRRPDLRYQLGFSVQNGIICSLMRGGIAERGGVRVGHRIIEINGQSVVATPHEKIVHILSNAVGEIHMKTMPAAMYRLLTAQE

T2: APBA3_1, O96018
T2 sequence (O96018 389-490, limits assumed, looked up): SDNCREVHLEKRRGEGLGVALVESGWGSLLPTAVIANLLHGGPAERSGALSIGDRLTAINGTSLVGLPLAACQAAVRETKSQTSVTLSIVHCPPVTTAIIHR

T3: DFNB31_1, Q9P202
T3 sequence (Q9P202 135-233, limits assumed, looked up): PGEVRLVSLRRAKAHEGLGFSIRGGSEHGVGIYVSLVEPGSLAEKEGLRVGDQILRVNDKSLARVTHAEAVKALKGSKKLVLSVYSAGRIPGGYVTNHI

T4: DFNB31_3, Q9P202
T4 sequence (Q9P202 811-907, limits assumed, looked up): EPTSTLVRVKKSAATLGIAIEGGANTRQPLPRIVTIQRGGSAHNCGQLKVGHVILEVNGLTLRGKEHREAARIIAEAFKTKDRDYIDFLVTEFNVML

T5: GRIP1_3, Q9Y3R0
T5 sequence (Q9Y3R0 247-346, limits assumed, looked up): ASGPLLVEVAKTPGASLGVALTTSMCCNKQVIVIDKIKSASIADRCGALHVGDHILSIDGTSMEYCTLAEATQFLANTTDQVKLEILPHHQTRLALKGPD

T6: GRIP1_7, Q9Y3R0
T6 sequence (Q9Y3R0 999-1096, limits assumed, looked up): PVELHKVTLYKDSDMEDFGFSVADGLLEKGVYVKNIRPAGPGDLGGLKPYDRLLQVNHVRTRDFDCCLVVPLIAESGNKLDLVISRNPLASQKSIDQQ

T7: MPDZ_12, O75970
T7 sequence (O75970 1857-1958, limits assumed, looked up): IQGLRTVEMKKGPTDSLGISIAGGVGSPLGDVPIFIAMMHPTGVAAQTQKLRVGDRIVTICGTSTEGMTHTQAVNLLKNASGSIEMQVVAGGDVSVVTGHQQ

T8: MPP6, Q9NZW5
T8 sequence (Q9NZW5 125-219, limits assumed, looked up): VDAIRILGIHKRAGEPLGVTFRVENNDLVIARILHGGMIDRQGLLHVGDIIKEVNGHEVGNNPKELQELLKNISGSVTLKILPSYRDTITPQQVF

T9: PDZD7_3, Q9H5P4
T9 sequence (Q9H5P4 857-944, limits assumed, looked up): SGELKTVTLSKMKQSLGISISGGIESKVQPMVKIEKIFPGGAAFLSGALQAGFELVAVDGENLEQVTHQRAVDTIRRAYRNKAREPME

T10: PTPN13_1, Q12923
T10 sequence (Q12923 1088-1188, limits assumed, looked up): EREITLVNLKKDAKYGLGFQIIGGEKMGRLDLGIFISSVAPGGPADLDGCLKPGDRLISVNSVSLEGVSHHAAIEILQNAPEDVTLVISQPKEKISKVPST

T11: SHANK1, Q9Y566
T11 sequence (Q9Y566 658-767, limits assumed, looked up): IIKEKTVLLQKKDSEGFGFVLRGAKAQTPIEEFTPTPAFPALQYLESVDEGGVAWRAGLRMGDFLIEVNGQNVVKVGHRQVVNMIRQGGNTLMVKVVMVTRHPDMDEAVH

T12: SYNJ2BP, P57105
T12 sequence (P57105 8-110, limits assumed, looked up): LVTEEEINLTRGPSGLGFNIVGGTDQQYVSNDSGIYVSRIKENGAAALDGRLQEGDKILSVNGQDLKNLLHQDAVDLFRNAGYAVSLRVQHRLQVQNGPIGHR


These binders were tested against AHNAK1, Q09666 (assay: holdup assay). Details: plain residues with an end cap or a label only (N-terminal biotin on a linker: ado-ado).
Parameters: key: below the threshold = too weak to quantify, mostly under pKd 3.1 to 4

Chain of AHNAK1, Q09666 (Q09666 4-100): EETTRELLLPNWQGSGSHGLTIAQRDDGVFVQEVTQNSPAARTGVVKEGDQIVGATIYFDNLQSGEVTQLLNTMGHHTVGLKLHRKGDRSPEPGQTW

Binder | pKd
VYEVPVETKF [SLC26A3, P40879] | below the threshold
PSDSVGKDVF [EGLN1, Q9GZT9] | below the threshold

The binders below were run against T1, APBA1_2, Q02410 (assay: holdup assay). Details: plain residues with an end cap or a label only (N-terminal biotin on a linker: ado-ado).
Parameters: key: below the threshold = too weak to quantify, mostly under pKd 3.1 to 4

Binder | pKd
VYEVPVETKF [SLC26A3, P40879] | 3.58
PSDSVGKDVF [EGLN1, Q9GZT9] | below the threshold

Each binder was assayed against T2, APBA3_1, O96018 (assay: holdup assay). Details: plain residues with an end cap or a label only (N-terminal biotin on a linker: ado-ado).
Parameters: key: below the threshold = too weak to quantify, mostly under pKd 3.1 to 4

Binder | pKd
VYEVPVETKF [SLC26A3, P40879] | below the threshold
PSDSVGKDVF [EGLN1, Q9GZT9] | below the threshold

These binders were tested against T3, DFNB31_1, Q9P202 (assay: holdup assay). Details: plain residues with an end cap or a label only (N-terminal biotin on a linker: ado-ado).
Parameters: key: below the threshold = too weak to quantify, mostly under pKd 3.1 to 4

Binder | pKd
VYEVPVETKF [SLC26A3, P40879] | 4.21
PSDSVGKDVF [EGLN1, Q9GZT9] | 3.49

What follows are binders tested against T4, DFNB31_3, Q9P202 (assay: holdup assay). Details: plain residues with an end cap or a label only (N-terminal biotin on a linker: ado-ado).
Parameters: key: below the threshold = too weak to quantify, mostly under pKd 3.1 to 4

Binder | pKd
VYEVPVETKF [SLC26A3, P40879] | 3.94
PSDSVGKDVF [EGLN1, Q9GZT9] | below the threshold

What follows are binders tested against DLG1_1, Q12959 (assay: holdup assay). Details: plain residues with an end cap or a label only (N-terminal biotin on a linker: ado-ado).
Parameters: key: below the threshold = too weak to quantify, mostly under pKd 3.1 to 4

Binder | pKd
VYEVPVETKF [SLC26A3, P40879] | below the threshold
PSDSVGKDVF [EGLN1, Q9GZT9] | below the threshold

These binders were tested against DLG4_2, P78352 (assay: holdup assay). Details: plain residues with an end cap or a label only (N-terminal biotin on a linker: ado-ado).
Parameters: key: below the threshold = too weak to quantify, mostly under pKd 3.1 to 4

Chain of DLG4_2, P78352 (P78352 155-259): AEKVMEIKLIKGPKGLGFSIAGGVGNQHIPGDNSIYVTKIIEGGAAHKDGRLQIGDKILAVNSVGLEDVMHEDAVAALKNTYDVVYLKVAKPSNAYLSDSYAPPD

Binder | pKd
VYEVPVETKF [SLC26A3, P40879] | 3.66
PSDSVGKDVF [EGLN1, Q9GZT9] | below the threshold

What follows are binders tested against DLG4_3, P78352 (assay: holdup assay). Details: plain residues with an end cap or a label only (N-terminal biotin on a linker: ado-ado).
Parameters: key: below the threshold = too weak to quantify, mostly under pKd 3.1 to 4

Chain of DLG4_3, P78352 (P78352 306-403): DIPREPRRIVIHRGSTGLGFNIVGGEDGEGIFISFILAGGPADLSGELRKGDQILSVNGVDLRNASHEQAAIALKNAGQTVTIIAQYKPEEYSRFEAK

Binder | pKd
VYEVPVETKF [SLC26A3, P40879] | below the threshold
PSDSVGKDVF [EGLN1, Q9GZT9] | below the threshold

These binders were tested against DLG5_1, Q8TDM6 (assay: holdup assay). Details: plain residues with an end cap or a label only (N-terminal biotin on a linker: ado-ado).
Parameters: key: below the threshold = too weak to quantify, mostly under pKd 3.1 to 4

Chain of DLG5_1, Q8TDM6 (Q8TDM6 617-713): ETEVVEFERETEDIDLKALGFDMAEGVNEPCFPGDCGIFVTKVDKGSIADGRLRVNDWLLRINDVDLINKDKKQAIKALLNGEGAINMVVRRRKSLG

Binder | pKd
VYEVPVETKF [SLC26A3, P40879] | below the threshold
PSDSVGKDVF [EGLN1, Q9GZT9] | below the threshold

These binders were tested against FRMPD2_3, Q68DX3 (assay: holdup assay). Details: plain residues with an end cap or a label only (N-terminal biotin on a linker: ado-ado).
Parameters: key: below the threshold = too weak to quantify, mostly under pKd 3.1 to 4

Chain of FRMPD2_3, Q68DX3 (Q68DX3 1073-1166): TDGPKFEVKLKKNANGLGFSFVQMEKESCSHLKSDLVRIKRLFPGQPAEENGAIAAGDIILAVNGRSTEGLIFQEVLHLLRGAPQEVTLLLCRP

Binder | pKd
VYEVPVETKF [SLC26A3, P40879] | 3.52
PSDSVGKDVF [EGLN1, Q9GZT9] | below the threshold

What follows are binders tested against GRID2IP_1, A4D2P6 (assay: holdup assay). Details: plain residues with an end cap or a label only (N-terminal biotin on a linker: ado-ado).
Parameters: key: below the threshold = too weak to quantify, mostly under pKd 3.1 to 4

Chain of GRID2IP_1, A4D2P6 (A4D2P6 1-87): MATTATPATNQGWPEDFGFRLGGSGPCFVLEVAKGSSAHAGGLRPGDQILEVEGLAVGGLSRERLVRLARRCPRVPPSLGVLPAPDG

Binder | pKd
VYEVPVETKF [SLC26A3, P40879] | below the threshold
PSDSVGKDVF [EGLN1, Q9GZT9] | below the threshold

These binders were tested against GRID2IP_2, A4D2P6 (assay: holdup assay). Details: plain residues with an end cap or a label only (N-terminal biotin on a linker: ado-ado).
Parameters: key: below the threshold = too weak to quantify, mostly under pKd 3.1 to 4

Chain of GRID2IP_2, A4D2P6 (A4D2P6 272-370): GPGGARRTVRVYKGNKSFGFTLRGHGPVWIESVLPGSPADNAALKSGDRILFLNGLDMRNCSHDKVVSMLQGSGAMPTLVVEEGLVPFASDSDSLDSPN

Binder | pKd
VYEVPVETKF [SLC26A3, P40879] | below the threshold
PSDSVGKDVF [EGLN1, Q9GZT9] | below the threshold

Each binder was assayed against T5, GRIP1_3, Q9Y3R0 (assay: holdup assay). Details: plain residues with an end cap or a label only (N-terminal biotin on a linker: ado-ado).
Parameters: key: below the threshold = too weak to quantify, mostly under pKd 3.1 to 4

Binder | pKd
VYEVPVETKF [SLC26A3, P40879] | below the threshold
PSDSVGKDVF [EGLN1, Q9GZT9] | below the threshold

Each binder was assayed against T6, GRIP1_7, Q9Y3R0 (assay: holdup assay). Details: plain residues with an end cap or a label only (N-terminal biotin on a linker: ado-ado).
Parameters: key: below the threshold = too weak to quantify, mostly under pKd 3.1 to 4

Binder | pKd
VYEVPVETKF [SLC26A3, P40879] | below the threshold
PSDSVGKDVF [EGLN1, Q9GZT9] | below the threshold

The binders below were run against Inadl_8, Q8NI35 (assay: holdup assay). Details: plain residues with an end cap or a label only (N-terminal biotin on a linker: ado-ado).
Parameters: key: below the threshold = too weak to quantify, mostly under pKd 3.1 to 4

Chain of Inadl_8, Q8NI35 (Q8NI35 1425-1530): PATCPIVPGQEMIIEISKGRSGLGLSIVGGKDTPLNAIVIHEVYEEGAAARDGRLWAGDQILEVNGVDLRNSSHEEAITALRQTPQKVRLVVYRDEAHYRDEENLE

Binder | pKd
VYEVPVETKF [SLC26A3, P40879] | below the threshold
PSDSVGKDVF [EGLN1, Q9GZT9] | below the threshold

What follows are binders tested against MAGI1_1, Q96QZ7 (assay: holdup assay). Details: plain residues with an end cap or a label only (N-terminal biotin on a linker: ado-ado).
Parameters: key: below the threshold = too weak to quantify, mostly under pKd 3.1 to 4

Chain of MAGI1_1, Q96QZ7 (Q96QZ7 1-106): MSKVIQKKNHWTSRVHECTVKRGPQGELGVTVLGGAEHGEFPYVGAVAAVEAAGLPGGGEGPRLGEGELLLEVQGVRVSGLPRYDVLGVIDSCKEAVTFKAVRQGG

Binder | pKd
VYEVPVETKF [SLC26A3, P40879] | below the threshold
PSDSVGKDVF [EGLN1, Q9GZT9] | below the threshold

Each binder was assayed against MAGI1_2, Q96QZ7 (assay: holdup assay). Details: plain residues with an end cap or a label only (N-terminal biotin on a linker: ado-ado).
Parameters: key: below the threshold = too weak to quantify, mostly under pKd 3.1 to 4

Chain of MAGI1_2, Q96QZ7 (Q96QZ7 456-580): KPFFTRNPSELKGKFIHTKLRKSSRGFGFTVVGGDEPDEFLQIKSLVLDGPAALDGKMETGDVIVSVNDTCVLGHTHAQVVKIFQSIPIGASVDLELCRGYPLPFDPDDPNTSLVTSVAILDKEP

Binder | pKd
VYEVPVETKF [SLC26A3, P40879] | below the threshold
PSDSVGKDVF [EGLN1, Q9GZT9] | below the threshold

These binders were tested against T7, MPDZ_12, O75970 (assay: holdup assay). Details: plain residues with an end cap or a label only (N-terminal biotin on a linker: ado-ado).
Parameters: key: below the threshold = too weak to quantify, mostly under pKd 3.1 to 4

Binder | pKd
VYEVPVETKF [SLC26A3, P40879] | below the threshold
PSDSVGKDVF [EGLN1, Q9GZT9] | below the threshold

These binders were tested against T8, MPP6, Q9NZW5 (assay: holdup assay). Details: plain residues with an end cap or a label only (N-terminal biotin on a linker: ado-ado).
Parameters: key: below the threshold = too weak to quantify, mostly under pKd 3.1 to 4

Binder | pKd
VYEVPVETKF [SLC26A3, P40879] | below the threshold
PSDSVGKDVF [EGLN1, Q9GZT9] | below the threshold

What follows are binders tested against NHERF2_2, Q15599 (assay: holdup assay). Details: plain residues with an end cap or a label only (N-terminal biotin on a linker: ado-ado).
Parameters: key: below the threshold = too weak to quantify, mostly under pKd 3.1 to 4

Chain of NHERF2_2, Q15599 (Q15599 142-238): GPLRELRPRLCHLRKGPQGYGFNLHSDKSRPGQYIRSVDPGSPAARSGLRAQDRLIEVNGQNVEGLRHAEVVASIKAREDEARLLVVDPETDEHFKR

Binder | pKd
VYEVPVETKF [SLC26A3, P40879] | 5.04
PSDSVGKDVF [EGLN1, Q9GZT9] | below the threshold

Each binder was assayed against T9, PDZD7_3, Q9H5P4 (assay: holdup assay). Details: plain residues with an end cap or a label only (N-terminal biotin on a linker: ado-ado).
Parameters: key: below the threshold = too weak to quantify, mostly under pKd 3.1 to 4

Binder | pKd
VYEVPVETKF [SLC26A3, P40879] | below the threshold
PSDSVGKDVF [EGLN1, Q9GZT9] | below the threshold

Each binder was assayed against PDZRN4_1, Q6ZMN7 (assay: holdup assay). Details: plain residues with an end cap or a label only (N-terminal biotin on a linker: ado-ado).
Parameters: key: below the threshold = too weak to quantify, mostly under pKd 3.1 to 4

Chain of PDZRN4_1, Q6ZMN7 (Q6ZMN7 213-318): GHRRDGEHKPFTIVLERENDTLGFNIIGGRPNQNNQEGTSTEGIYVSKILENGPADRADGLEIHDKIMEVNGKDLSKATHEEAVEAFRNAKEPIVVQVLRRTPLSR

Binder | pKd
VYEVPVETKF [SLC26A3, P40879] | below the threshold
PSDSVGKDVF [EGLN1, Q9GZT9] | below the threshold

The binders below were run against T10, PTPN13_1, Q12923 (assay: holdup assay). Details: plain residues with an end cap or a label only (N-terminal biotin on a linker: ado-ado).
Parameters: key: below the threshold = too weak to quantify, mostly under pKd 3.1 to 4

Binder | pKd
VYEVPVETKF [SLC26A3, P40879] | below the threshold
PSDSVGKDVF [EGLN1, Q9GZT9] | below the threshold

The binders below were run against T11, SHANK1, Q9Y566 (assay: holdup assay). Details: plain residues with an end cap or a label only (N-terminal biotin on a linker: ado-ado).
Parameters: key: below the threshold = too weak to quantify, mostly under pKd 3.1 to 4

Binder | pKd
VYEVPVETKF [SLC26A3, P40879] | 4.63
PSDSVGKDVF [EGLN1, Q9GZT9] | below the threshold

The binders below were run against T12, SYNJ2BP, P57105 (assay: holdup assay). Details: plain residues with an end cap or a label only (N-terminal biotin on a linker: ado-ado).
Parameters: key: below the threshold = too weak to quantify, mostly under pKd 3.1 to 4

Binder | pKd
VYEVPVETKF [SLC26A3, P40879] | 3.57
PSDSVGKDVF [EGLN1, Q9GZT9] | below the threshold

What follows are binders tested against TJP1_3, Q07157 (assay: holdup assay). Details: plain residues with an end cap or a label only (N-terminal biotin on a linker: ado-ado).
Parameters: key: below the threshold = too weak to quantify, mostly under pKd 3.1 to 4

Chain of TJP1_3, Q07157 (Q07157 416-512): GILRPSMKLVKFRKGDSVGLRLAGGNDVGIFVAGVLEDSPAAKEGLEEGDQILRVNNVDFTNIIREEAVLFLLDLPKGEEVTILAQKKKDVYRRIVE

Binder | pKd
VYEVPVETKF [SLC26A3, P40879] | below the threshold
PSDSVGKDVF [EGLN1, Q9GZT9] | below the threshold

From paper PMC9482650, “Quantitative fragmentomics allow affinity mapping of interactomes” (Nature Communications, 2022)
